# Source: article PMC10518340 (Signal Transduction and Targeted Therapy, 2023)
# T1: recombinant extracellular domain of IFNAR1 (ECD-IFNAR1) (UniProt P17181 28-436, RED-tris-NTA 2nd Generation dye on the His-tag (MST only))
# T1 construct: signal peptide in the construct; extracellular domain of IFNAR1, residues 1-436 as printed; the secreted product lacks the signal peptide; source: bought: Sino Biological (13222-H08H)
# T1 sequence: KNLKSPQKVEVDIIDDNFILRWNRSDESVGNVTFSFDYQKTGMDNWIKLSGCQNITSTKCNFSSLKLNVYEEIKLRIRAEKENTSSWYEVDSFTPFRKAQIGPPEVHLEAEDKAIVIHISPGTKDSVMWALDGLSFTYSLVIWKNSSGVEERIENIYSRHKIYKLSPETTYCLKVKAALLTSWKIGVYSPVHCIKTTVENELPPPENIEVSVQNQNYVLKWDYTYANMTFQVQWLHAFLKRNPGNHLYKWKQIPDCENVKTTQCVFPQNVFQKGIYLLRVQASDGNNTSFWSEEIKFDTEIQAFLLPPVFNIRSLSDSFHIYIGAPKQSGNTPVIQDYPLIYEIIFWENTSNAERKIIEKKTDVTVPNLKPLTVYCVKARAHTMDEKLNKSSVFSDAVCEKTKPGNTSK
# B1: RAPD1P1, peptide from the N-terminal of LRPAP1 (residues 35-53) (peptide)
# peptide: YSREKNQPKPSPKRESGEE
# notes: LRPAP1 residues 35-53; also called PAPD1P1; source: synthetic peptide (GenScript Biotech, purity 95%)
# Molecular target: T1, recombinant extracellular domain of …
# Assay: MST; His-tagged ECD-IFNAR1 labelled with RED-tris-NTA 2nd Generation dye for 30 min, mixed with serially diluted LRPAP1 peptides; Monolith NT.115 capillaries; S/N above 5.0 taken as valid binding
# Conditions: both partners purified
binder,measurement,value
B1,Kd,11.3 nM
